# Measured values from PMC9352680, “A comprehensive thermodynamic model for RNA binding by the Saccharomyces cerevisiae Pumilio protein PUF4”.
# T1: PUF4 RNA-binding domain (Saccharomyces cerevisiae, UniProt P25339 537-888)
# T1 sequence: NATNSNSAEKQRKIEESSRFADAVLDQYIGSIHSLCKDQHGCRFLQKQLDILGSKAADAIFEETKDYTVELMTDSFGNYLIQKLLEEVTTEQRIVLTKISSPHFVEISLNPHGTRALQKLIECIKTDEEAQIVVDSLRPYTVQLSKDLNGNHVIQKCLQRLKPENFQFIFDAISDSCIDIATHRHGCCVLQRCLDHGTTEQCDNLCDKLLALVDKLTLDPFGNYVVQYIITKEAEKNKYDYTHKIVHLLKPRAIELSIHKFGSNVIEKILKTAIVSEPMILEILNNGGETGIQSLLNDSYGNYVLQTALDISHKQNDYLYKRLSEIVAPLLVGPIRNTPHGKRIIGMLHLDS
# Target: T1, PUF4 RNA-binding domain
# Assay: Mg; RNA-MaP; 20 mM Na-HEPES pH 7.4, 30 mM KOAc, 0.75 mM MgCl2, 0.1% Tween-20, 5% glycerol, 0.1 mg/mL BSA, 2 mM DTT; 25 C; 0.0125-409.6 nM protein
# Conditions: tags: N-His6-TEV cleaved; C-SNAP kept, Cy3B-labelled; label: tethered on chip by stalled RNA polymerase
row,Binder,Kd [nM]
1,UCUCUUUCACACUAUAAUUCUCUU (ssRNA) [Id_ii_S1_P3E.4_K3.3_C3.2_[C-2T]_[T-1C]_H3.3_A3.1_F3.1_T3.2_[T9A]_[A10T]],> 2300
2,UCUCUUGUACACUAUAUUUCUCUU (ssRNA) [Id_ii_S1_P3E.4_K3.3_C3.2_[C-2G]_H3.3_A3.1_F3.1_T3.2_[A10T]],0.901
3,UCUCUUAUACACUAUAACUCUCUU (ssRNA) [Id_ii_S1_P3E.4_K3.3_C3.2_[C-2A]_H3.3_A3.1_F3.1_T3.2_[T9A]_[A10C]],46.2
4,UCUCUUUUACACUAUAUAUCUCUU (ssRNA) [Id_ii_S1_P3E.4_K3.3_C3.2_[C-2T]_H3.3_A3.1_F3.1_T3.2],1030
5,UCUCUUUGACACUAUACAUCUCUU (ssRNA) [Id_ii_S1_P3E.4_K3.3_C3.2_[C-2T]_[T-1G]_H3.3_A3.1_F3.1_T3.2_[T9C]],> 2300
6,UCUCUUACACACUAUAUUUCUCUU (ssRNA) [Id_ii_S1_P3E.4_K3.3_C3.2_[C-2A]_[T-1C]_H3.3_A3.1_F3.1_T3.2_[A10T]],> 2300
7,UCUCUUCCACACUAUACCUCUCUU (ssRNA) [Id_ii_S1_P3E.4_K3.3_C3.2_[T-1C]_H3.3_A3.1_F3.1_T3.2_[T9C]_[A10C]],> 2300
8,UCUCUUUUACACUAUAUCUCUCUU (ssRNA) [Id_ii_S1_P3E.4_K3.3_C3.2_[C-2T]_H3.3_A3.1_F3.1_T3.2_[A10C]],1380
9,UCUCUUCCACACUAUACAUCUCUU (ssRNA) [Id_ii_S1_P3E.4_K3.3_C3.2_[T-1C]_H3.3_A3.1_F3.1_T3.2_[T9C]],> 2300
10,UCUCUUAUACACUAUAGCUCUCUU (ssRNA) [Id_ii_S1_P3E.4_K3.3_C3.2_[C-2A]_H3.3_A3.1_F3.1_T3.2_[T9G]_[A10C]],45.7
11,UCUCUUACACACUAUAACUCUCUU (ssRNA) [Id_ii_S1_P3E.4_K3.3_C3.2_[C-2A]_[T-1C]_H3.3_A3.1_F3.1_T3.2_[T9A]_[A10C]],> 2300
12,UCUCUUAUACACUAUACCUCUCUU (ssRNA) [Id_ii_S1_P3E.4_K3.3_C3.2_[C-2A]_H3.3_A3.1_F3.1_T3.2_[T9C]_[A10C]],30.1
13,UCUCUUACACACUAUAGUUCUCUU (ssRNA) [Id_ii_S1_P3E.4_K3.3_C3.2_[C-2A]_[T-1C]_H3.3_A3.1_F3.1_T3.2_[T9G]_[A10T]],> 2300
14,UCUCUUCGACACUAUAGCUCUCUU (ssRNA) [Id_ii_S1_P3E.4_K3.3_C3.2_[T-1G]_H3.3_A3.1_F3.1_T3.2_[T9G]_[A10C]],> 2300
15,UCUCUUUUUAUUUUAUCUCUU (ssRNA) [Ib_S1_P4E.1_K4.1_C4.1_H4.1_[G2T]_A4.1_[A6T]_F4.1_T4.1],> 2300
16,UCUCUUGUACACUAUAAUUCUCUU (ssRNA) [Id_ii_S1_P3E.4_K3.3_C3.2_[C-2G]_H3.3_A3.1_F3.1_T3.2_[T9A]_[A10T]],1.16

row,Binder,Kd [nM]
1,UCUCUUUUACACUAUACCUCUCUU (ssRNA) [Id_ii_S1_P3E.4_K3.3_C3.2_[C-2T]_H3.3_A3.1_F3.1_T3.2_[T9C]_[A10C]],1910
2,UCUCUUAAACACUAUAGCUCUCUU (ssRNA) [Id_ii_S1_P3E.4_K3.3_C3.2_[C-2A]_[T-1A]_H3.3_A3.1_F3.1_T3.2_[T9G]_[A10C]],> 2300
3,UCUCUUUUACACUAUACUUCUCUU (ssRNA) [Id_ii_S1_P3E.4_K3.3_C3.2_[C-2T]_H3.3_A3.1_F3.1_T3.2_[T9C]_[A10T]],1220
4,UCUCUUUUUAUACUAUCUCUU (ssRNA) [Ib_S1_P4E.1_K4.1_C4.1_H4.1_[G2T]_A4.1_[T7C]_F4.1_T4.1],1060
5,UCUCUUCCACACUAUAGCUCUCUU (ssRNA) [Id_ii_S1_P3E.4_K3.3_C3.2_[T-1C]_H3.3_A3.1_F3.1_T3.2_[T9G]_[A10C]],> 2300
6,UCUCUUAUACACUAUACAUCUCUU (ssRNA) [Id_ii_S1_P3E.4_K3.3_C3.2_[C-2A]_H3.3_A3.1_F3.1_T3.2_[T9C]],34.9
7,UCUCUUAGACACUAUAUUUCUCUU (ssRNA) [Id_ii_S1_P3E.4_K3.3_C3.2_[C-2A]_[T-1G]_H3.3_A3.1_F3.1_T3.2_[A10T]],> 2300
8,UCUCUUAGACACUAUAAAUCUCUU (ssRNA) [Id_ii_S1_P3E.4_K3.3_C3.2_[C-2A]_[T-1G]_H3.3_A3.1_F3.1_T3.2_[T9A]],> 2300
9,UCUCUUUUACACUAUAGCUCUCUU (ssRNA) [Id_ii_S1_P3E.4_K3.3_C3.2_[C-2T]_H3.3_A3.1_F3.1_T3.2_[T9G]_[A10C]],> 2300
10,UCUCUUAAACACUAUACAUCUCUU (ssRNA) [Id_ii_S1_P3E.4_K3.3_C3.2_[C-2A]_[T-1A]_H3.3_A3.1_F3.1_T3.2_[T9C]],> 2300
11,UCUCUUAGACACUAUAAUUCUCUU (ssRNA) [Id_ii_S1_P3E.4_K3.3_C3.2_[C-2A]_[T-1G]_H3.3_A3.1_F3.1_T3.2_[T9A]_[A10T]],> 2300
12,UCUCUUUCACACUAUAAAUCUCUU (ssRNA) [Id_ii_S1_P3E.4_K3.3_C3.2_[C-2T]_[T-1C]_H3.3_A3.1_F3.1_T3.2_[T9A]],> 2300
13,UCUCUUAUACACUAUAUCUCUCUU (ssRNA) [Id_ii_S1_P3E.4_K3.3_C3.2_[C-2A]_H3.3_A3.1_F3.1_T3.2_[A10C]],40.6
14,UCUCUUAUACACUAUAUAUCUCUU (ssRNA) [Id_ii_S1_P3E.4_K3.3_C3.2_[C-2A]_H3.3_A3.1_F3.1_T3.2],31.3
15,UCUCUUUCACACUAUAUUUCUCUU (ssRNA) [Id_ii_S1_P3E.4_K3.3_C3.2_[C-2T]_[T-1C]_H3.3_A3.1_F3.1_T3.2_[A10T]],> 2300
16,UCUCUUUUACACUAUAAGUCUCUU (ssRNA) [Id_ii_S1_P3E.4_K3.3_C3.2_[C-2T]_H3.3_A3.1_F3.1_T3.2_[T9A]_[A10G]],1520
